Measurements reported in PMC6615493, “The Role of Iron and Copper on the Oligomerization Dynamics of DR_2577, the Main S-Layer Protein of Deinococcus radiodurans” (Frontiers in Microbiology, 2019).
Several values for one entry are separate records, joined by “and”; a condition that tells them apart may be missing. Equal entries are not always repeated.

Biological target: the molecule itself
Experiment: SEC; Superose 6 10/300GL, 50 µl protein at 0.2 mg/ml, 0.05% β-DDM; 50 mM phosphate (pH >= 7) or 50 mM Na acetate (pH <= 6); control runs, runs with EDTA, at lower pH and with Cu2+; close-to-native conditions

B1: DR_2577, the main S-layer protein of Deinococcus radiodurans (natural protein, UniProt Q9RRB6 23-1167, looked up)
chain: APVSAPQVPALTDVPAGHWAKDAIDRLVSRGVILGYPDGTFRGTQNLTRYEAAIIIARLLDQMRDGETPAGMTAEDMTALQNAIQELAADLAALGVRVSDLEANAVSKDDFARLEARIEEVAAAGGEQGATEALQGQIDDLTARVDEYDALRADVDDNASSIAALNDLTVLLNQDILDLQDRVSAVEAAQADFVQRSDFDALGGRVTTVETRVETVNNSLTGRIAALERNAFSVKPSLTIGYSVSRTSRNFDVDRLFPLNADGTVANNAFTSGGIDTDTGAQRRDFGDFGNASDPVVAGAAGLYGFADGVSYTVYFTDGSTATFDGLNPADYKVPTGKVIDTTKGRNGFGFNNLARYKEGSTDIGISLGFDTSGQFSQVTSGTGGSLFSTAGRLQVNQIDLNFGLVTGLPSDAYVDTNGNGKKDDGEATGRGTYLGSGGTAAILRDPAGNVYRPVFFRFKNATTQFSVGNNPVIVTLGQQQKFYFSDYVFDNNYDGRGDGFTVTVDGSNVPVIGAWKPQIKGVYGSRSGLDGTAEAGYGVYYRGVRAQITPVGTLTAGIHYAQEGRDMFGAAQNTTSTPSDVTTYGADLHGKAFGVELHSEYATSRVRPNTANAAVQTSNAFYARVATRKDNLAFDLNTPAAKFGNDTFGVSLYDLNYRKIDAGYNNVAGISEYGYGSYSRTSAQNIAYNPDTGVTAPFANLDRQAYTDANNDGTSDRNADGTVVATNTKIGQMGFGVKAAANLGPVAIGGYYDTSTGANGDNANRMTEAGGSAKVAYSIFSLRGTYNTLDSNRPQIYRDAAGTQIIGDAKVRRYAVQADVTPGLGLFVGAYYRDVNVNGVRSTTDRGLLGRGYLASSFEPGVGNNAYRTGLRCADNNFGTGTRDIDGVGGVLNPAVNLDQSRTATCFTSYGVEAGHAGDNANALVKDLFFRVGYSRVYVPTTATATTGDFSGSVTYGDARYDRKVGVANVRLAGSFSTTNTQLDSRPAGTRGAVGLIVRTDPLENVPFRPQFNGQVGYYTADNRVAAGNYNANATKYGAGVVLNDFLLPQTKIGVRYDGYMAQNRQYTPFDGDGTQGYFSDANNNRRTNLNGVYVEGAYQDLIFSYGTYTLSQKDLNGVEYGSGINNGQPARGQTFKISYKVNF
notes: DR_2577 (SlpA), main S-layer protein of Deinococcus radiodurans strain R1; The introduction describes it as a homo-hexamer of ~760 kDa (trimer of dimers); the dimers are said (cited work) to be held by intermolecular disulfide bonds; also called SlpA
  stoichiometry N: 6 and 2
